Source: article PMC10354202

T1: (Ig32)2-(R3^IVVI)-(Ig32)2 polyprotein, talin R3 domain with the IVVI mutation
T1 chain: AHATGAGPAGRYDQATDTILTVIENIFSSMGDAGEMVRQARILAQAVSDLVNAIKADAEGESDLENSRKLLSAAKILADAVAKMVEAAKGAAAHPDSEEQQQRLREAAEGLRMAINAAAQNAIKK

B1: full-length human vinculin, wild type, P18206-2 K944A; R945A; D1013A; E1015A; E986A (protein)
chain: MPVFHTRTIESILEPVAQQISHLVIMHEEGEVDGKAIPDLTAPVAAVQAAVSNLVRVGKETVQTTEDQILKRDMPPAFIKVENACTKLVQAAQMLQSDPYSVPARDYLIDGSRGILSGTSDLLLTFDEAEVRKIIRVCKGILEYLTVAEVVETMEDLVTYTKNLGPGMTKMAKMIDERQQELTHQEHRVMLVNSMNTVKELLPVLISAMKIFVTTKNSKNQGIEEALKNRNFTVEKMSAEINEIIRVLQLTSWDEDAWASKDTEAMKRALASIDSKLNQAKGWLRDPSASPGDAGEQAIRQILDEAGKVGELCAGKERREILGTCKMLGQMTDQVADLRARGQGSSPVAMQKAQQVSQGLDVLTAKVENAARKLEAMTNSKQSIAKKIDAAQNWLADPNGGPEGEEQIRGALAEARKIAELCDDPKERDDILRSLGEISALTSKLADLRRQGKGDSPEARALAKQVATALQNLQTKTNRAVANSRPAKAAVHLEGKIEQAQRWIDNPTVDDRGVGQAAIRGLVAEGHRLANVMMGPYRQDLLAKCDRVDQLTAQLADLAARGEGESPQARALASQLQDSLKDLKARMQEAMTQEVSDVFSDTTTPIKLLAVAATAPPDAPNREEVFDERAANFENHSGKLGATAEKAAAVGTANKSTVEGIQASVKTARELTPQVVSAARILLRNPGNQAAYEHFETMKNQWIDNVEKMTGLVDEAIDTKSLLDASEEAIKKDLDKCKVAMANIQPQMLVAGATSIARRANRILLVAKREVENSEDPKFREAVKAASDELSKTISPMVMDAKAVAGNISDPGLQKSFLDSGYRILGAVAKVREAFQPQEPDFPPPPPDLEQLRLTDELAPPKPPLPEGEVPPPRPPPPEEKDEEFPEQKAGEVINQPMMMAARQLHDEARKWSSKGNDIIAAAKRMALLMAEMSRLVRGGSGTAAALIQCAKDIAKASDEVTRLAKEVAKQCTDKRIRTNLLQVCARIPTISTQLKILSTVKATMLGRTNISAEASEQATEMLVHNAQNLMQSVKETVREAEAASIKIRTDAGFTLRWVRKTPWYQ
B2: full-length human vinculin, wild type, P18206-2 K944A; R945A; D1013A; E1015A (protein)
chain: MPVFHTRTIESILEPVAQQISHLVIMHEEGEVDGKAIPDLTAPVAAVQAAVSNLVRVGKETVQTTEDQILKRDMPPAFIKVENACTKLVQAAQMLQSDPYSVPARDYLIDGSRGILSGTSDLLLTFDEAEVRKIIRVCKGILEYLTVAEVVETMEDLVTYTKNLGPGMTKMAKMIDERQQELTHQEHRVMLVNSMNTVKELLPVLISAMKIFVTTKNSKNQGIEEALKNRNFTVEKMSAEINEIIRVLQLTSWDEDAWASKDTEAMKRALASIDSKLNQAKGWLRDPSASPGDAGEQAIRQILDEAGKVGELCAGKERREILGTCKMLGQMTDQVADLRARGQGSSPVAMQKAQQVSQGLDVLTAKVENAARKLEAMTNSKQSIAKKIDAAQNWLADPNGGPEGEEQIRGALAEARKIAELCDDPKERDDILRSLGEISALTSKLADLRRQGKGDSPEARALAKQVATALQNLQTKTNRAVANSRPAKAAVHLEGKIEQAQRWIDNPTVDDRGVGQAAIRGLVAEGHRLANVMMGPYRQDLLAKCDRVDQLTAQLADLAARGEGESPQARALASQLQDSLKDLKARMQEAMTQEVSDVFSDTTTPIKLLAVAATAPPDAPNREEVFDERAANFENHSGKLGATAEKAAAVGTANKSTVEGIQASVKTARELTPQVVSAARILLRNPGNQAAYEHFETMKNQWIDNVEKMTGLVDEAIDTKSLLDASEEAIKKDLDKCKVAMANIQPQMLVAGATSIARRANRILLVAKREVENSEDPKFREAVKAASDELSKTISPMVMDAKAVAGNISDPGLQKSFLDSGYRILGAVAKVREAFQPQEPDFPPPPPDLEQLRLTDELAPPKPPLPEGEVPPPRPPPPEEKDEEFPEQKAGEVINQPMMMAARQLHDEARKWSSKGNDIIAAAKRMALLMAEMSRLVRGGSGTAAALIQCAKDIAKASDEVTRLAKEVAKQCTDKRIRTNLLQVCERIPTISTQLKILSTVKATMLGRTNISAEASEQATEMLVHNAQNLMQSVKETVREAEAASIKIRTDAGFTLRWVRKTPWYQ

Biological target: T1, (Ig32)2-(R3^IVVI)-(Ig32)2 polyprotein, …
Assay: magnetic tweezers
Settings: chain shown with the change; for other: average unbinding time at 40 pN: parent: est. 9 s, read off a plot

Row | Binder | other: unbinding time (tUb) at 40 pN, peak of square-root histogram | other: average unbinding time at 40 pN
1 | B1 | 3.4 s | 18 s
2 | B2 | 4 s | 27 s
